{
  "source": "patent US6153580",
  "target": "β-casein",
  "data": [
    {"substance": "Hin47 Ser-197→alanine analog (enzyme)", "values": [
      {"measurement": "protease activity on the substrate β-casein", "value": "< 10", "unit": "%"}
    ]}
  ]
}
